Like-named read-outs stand apart in the source and are kept apart here.
What was measured:
[1] = tested on: M.MpeI N374K (Mycoplasma penetrans); details: 5mC on one strand of CpG; CxSAM preferred over SAM 1.3-fold; HpaII protection assay
[2] = tested on: M.MpeI WT K374N (reversion to wild type) (Mycoplasma penetrans); details: CpGs modified with SAM; no transfer with CxSAM
[3] = tested on: M.MpeI N374K (Mycoplasma penetrans); details: CpGs modified with SAM or CxSAM, bisulfite sequencing
[4] = biological target: T1, Dcm N436K (Escherichia coli) (UniProt P0AED9); assay: cell_activity; details: CCWGG sites carboxymethylated; also makes 5mC
T1 sequence: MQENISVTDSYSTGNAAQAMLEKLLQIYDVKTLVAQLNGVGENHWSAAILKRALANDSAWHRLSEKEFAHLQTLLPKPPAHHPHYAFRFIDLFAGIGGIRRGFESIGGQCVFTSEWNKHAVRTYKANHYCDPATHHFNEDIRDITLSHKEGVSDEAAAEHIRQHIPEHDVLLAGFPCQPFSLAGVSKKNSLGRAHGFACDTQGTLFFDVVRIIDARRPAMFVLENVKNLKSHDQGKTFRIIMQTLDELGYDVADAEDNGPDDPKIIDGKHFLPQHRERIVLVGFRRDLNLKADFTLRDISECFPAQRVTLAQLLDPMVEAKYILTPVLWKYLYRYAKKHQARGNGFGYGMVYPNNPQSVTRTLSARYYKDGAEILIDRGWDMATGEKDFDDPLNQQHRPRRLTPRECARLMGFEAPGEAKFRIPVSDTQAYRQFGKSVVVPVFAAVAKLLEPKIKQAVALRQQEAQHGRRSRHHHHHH

[5] = tested on: M.MpeI N374K (Mycoplasma penetrans); details: CpGs converted to 5cxmC with CxSAM; ~60% 5mC with SAM; bisulfite sequencing

“hemimethylated CpG fluorophore-labelled oligonucleotide” was tested, and the binding signal [1] was 1.3 fold.
With pUC19 plasmid DNA the activity [2] was 100% and the activity [3] was > 70%.
For E. coli genomic DNA (dam-/dcm-), the activity [4] was > 1.5%.
Work on lambda phage genomic DNA, unmethylated yielded an activity [5] of 50%.

Reference: US20230183793
